Experiment [1] deals with EGFR-Wt. The experiment is described as follows: MaMTH EGFR-interactor screen, lentiviral preys against EGFR-wildtype bait (interaction score). It is filed as cell-based, human. As to conditions: ratio of EGFR-Wt mean to EGFR-L858R mean interaction score. Summed up:
(§1)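 Interaction score is the luciferase fold-change versus averaged negative controls (Fabp5, Pex19, Pex7, GABBR2), with >1 called interacting. Luciferase was measured 24 h after triplicate bait transfection. This followed single-copy prey transduction (MOI ~0.3-0.4) of GAL4UAS-luciferase HEK293T cells and ≥48 h puromycin selection.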

Experiment [2] addresses T1, EGFR-Wt (Homo sapiens, UniProt P00533).
T1 construct: with the advantage of testing full-length integral membrane proteins; (GGGGS)2 linker-Cub (human ubiquitin aa 35-76)-GAL4(1-147)-mNFkB(364-550) (C); expressed in transfected cells
The experiment is described as above. It is filed as cell-based. As to conditions: MaMTH interaction score of prey with EGFR-Wt bait, mean. Summed up:
as §1

Experiment [3] concerns the target T2, EGFR-L858R (Homo sapiens, UniProt P00533, L858R).
T2 construct: with the advantage of testing full-length integral membrane proteins; (GGGGS)2 linker-Cub (human ubiquitin aa 35-76)-GAL4(1-147)-mNFkB(364-550) (C); expressed in transfected cells
Nature of the experiment: MaMTH EGFR-interactor screen, lentiviral preys against EGFR-L858R bait (interaction score). It counts as cell-based. The settings on record: MaMTH interaction score of prey with EGFR-L858R bait. Summed up:
as §1

B1: LCP2 (protein, UniProt Q13094 1-533, looked up)
Lymphocyte cytosolic protein 2: MALRNVPFRSEVLGWDPDSLADYFKKLNYKDCEKAVKKYHIDGARFLNLTENDIQKFPKLRVPILSKLSQEINKNEERRSIFTRKPQVPRFPEETESHEEDNGGWSSFEEDDYESPNDDQDGEDDGDYESPNEEEEAPVEDDADYEPPPSNDEEALQNSILPAKPFPNSNSMYIDRPPSGKTPQQPPVPPQRPMAALPPPPAGRNHSPLPPPQTNHEEPSRSRNHKTAKLPAPSIDRSTKPPLDRSLAPFDREPFTLGKKPPFSDKPSIPAGRSLGEHLPKIQKPPLPPTTERHERSSPLPGKKPPVPKHGWGPDRRENDEDDVHQRPLPQPALLPMSSNTFPSRSTKPSPMNPLPSSHMPGAFSESNSSFPQSASLPPYFSQGPSNRPPIRAEGRNFPLPLPNKPRPPSPAEEENSLNEEWYVSYITRPEAEAALRKINQDGTFLVRDSSKKTTTNPYVLMVLYKDKVYNIQIRYQKESQVYLLGTGLRGKEDFLSVSDIIDYFRKMPLLLIDGKNRGSRYQCTLTHAAGYP
Consider B1, for which the Wt/L858R in experiment [1] is on record as 0.43. In experiment [2], this molecule registered an EGFR-Wt mean of 2.71. This molecule also displayed an EGFR-L858R mean in experiment [3] of 6.29.

B2: GAB1 (protein, UniProt Q13480 2-694, looked up)
GRB2-associated-binding …: SGGEVVCSGWLRKSPPEKKLKRYAWKRRWFVLRSGRLTGDPDVLEYYKNDHAKKPIRIIDLNLCQQVDAGLTFNKKEFENSYIFDINTIDRIFYLVADSEEEMNKWVRCICDICGFNPTEEDPVKPPGSSLQAPADLPLAINTAPPSTQADSSSATLPPPYQLINVPPHLETLGIQEDPQDYLLLINCQSKKPEPTRTHADSAKSTSSETDCNDNVPSHKNPASSQSKHGMNGFFQQQMIYDSPPSRAPSASVDSSLYNLPRSYSHDVLPKVSPSSTEADGELYVFNTPSGTSSVETQMRHVSISYDIPPTPGNTYQIPRTFPEGTLGQTSKLDTIPDIPPPRPPKPHPAHDRSPVETCSIPRTASDTDSSYCIPTAGMSPSRSNTISTVDLNKLRKDASSQDCYDIPRAFPSDRSSSLEGFHNHFKVKNVLTVGSVSSEELDENYVPMNPNSPPRQHSSSFTEPIQEANYVPMTPGTFDFSSFGMQVPPPAHMGFRSSPKTPPRRPVPVADCEPPPVDRNLKPDRKVKPAPLEIKPLPEWEELQAPVRSPITRSFARDSSRFPMSPRPDSVHSTTSSSDSHDSEENYVPMNPNLSSEDPNLFGSNSLDGGSSPMIKPKGDKQVEYLDLDLDSGKSTPPRKQKSSGSGSSVADERVDYVVVDQQKTLALKSTREAWTDGRQSTESETPAKSVK
For B2, the Wt/L858R in experiment [1] is listed as 0.41. The molecule further returned an EGFR-Wt mean in experiment [2] of 0.93. This molecule gave an EGFR-L858R mean in experiment [3] of 2.30.

The values are drawn from US9958461B2, “Detection of protein to protein interactions” (THE GOVERNING COUNCIL OF THE UNIVERSITY OF TORONTO, priority 2013, dated 2018).
